From paper PMC4865371, “ESCRT-III activation by parallel action of ESCRT-I/II and ESCRT-0/Bro1 during MVB biogenesis” (eLife, 2016)

Biological target: the molecule itself
Test: negative stain transmission electron microscopy; purified recombinant Snf7 protein alone; protofilament assembly looked for

Protein	binding result
Snf7^1-225 (α6 truncated Snf7) (domain or fragment, Saccharomyces cerevisiae, UniProt P39929 1-225, looked up, Snf7/Vps32, Saccharomyces cerevisiae, residues 1-225, lacks the C-terminal α6 helix; source: recombinant, purified as described (Buchkovich et al., 2013; Henne et al., 2012; Tang et al., 2015)) MWSSLFGWTSSNAKNKESPTKAIVRLREHINLLSKKQSHLRTQITNQENEARIFLTKGNKVMAKNALKKKKTIEQLLSKVEGTMESMEQQLFSIESANLNLETMRAMQEGAKAMKTIHSGLDIDKVDETMDEIREQVELGDEISDAISRPLITGANEVDEDELDEELDMLAQENANQETSKIVNNNVNAAPISENKVSLPSVPSNKIKQSENSVKDGEEEEDEED	binds
Snf7^Q90L (natural protein, Saccharomyces cerevisiae, UniProt P39929 1-240, looked up, Snf7/Vps32, Saccharomyces cerevisiae, with the point mutation Q90L found in the vps20Δ suppressor screen; source: recombinant, purified as described (Buchkovich et al., 2013; Henne et al., 2012; Tang et al., 2015)) MWSSLFGWTSSNAKNKESPTKAIVRLREHINLLSKKQSHLRTQITNQENEARIFLTKGNKVMAKNALKKKKTIEQLLSKVEGTMESMEQLLFSIESANLNLETMRAMQEGAKAMKTIHSGLDIDKVDETMDEIREQVELGDEISDAISRPLITGANEVDEDELDEELDMLAQENANQETSKIVNNNVNAAPISENKVSLPSVPSNKIKQSENSVKDGEEEEDEEDEDEKALRELQAEMGL	binds
